Values of other authors, collected in publication PMC4786785.

Molecular target: Nterm1 (UniProt position 2, ----MPIAQIH)
Settings: not stated (wild-type enzyme, described in the context of the natural tautomerase mechanism)

Question: With “4-oxalocrotonate tautomerase (4-OT) (Pseudomonas putida mt-2)” as the substance, how does the pKa read?
Answer: ≈6.4
